Results: patent US20240025993A1, “CD19 BINDING MOLECULES AND USES THEREOF” (NOVARTIS AG, priority 2020, published 2024)

Assays:
[1] = Differential scanning calorimetry, melting temperature of Fc modified anti-CD3 antibodies (Example 35); type: physicochemical; settings: DSC, 1 mg/ml in PBS pH 7.4, anti-CD3 IgG1 Fc variants
Method: Calorimetric measurements were carried out on a differential scanning micro calorimeter (Nano DSC, TA instruments). The cell volume was 0.5 ml and the heating rate was 1° C./min. All proteins were used at a concentration of 1 mg/m in PBS (pH 7.4). The molar heat capacity of each protein was estimated by comparison with duplicate samples containing identical buffer from which the protein had been omitted. The partial molar heat capacities and melting curves were analyzed using standard procedure. Thermograms were baseline corrected and concentration normalized.

[2] = Aggregation propensity (% HMW) by analytical SEC of IgG1 anti-CD3 antibody and Fc variants (Example 35); type: physicochemical; settings: PBS pH 7.4, anti-CD3 antibodies
Method: Size exclusion chromatography measurements were performed to evaluate the aggregation propensity (% HMW) of IgG1 antibody and Fc modified derivatives. The produced and purified anti CD3 antibodies were applied to an analytical size exclusion chromatography column (SEC 200, GE Healthcare), equilibrated with PBS buffer pH 7.4.

[3] = tested on: Jurkat NFAT luciferized (JNL) cells with THP-1 cells; test: Anti-CD3 NFAT signalling assay, JNL + THP-1 cells (Example 36); type: cell-based, human
Method: Jurkat reporter gene assay (RGA) for the nuclear factor of activated T-cells (NFAT) pathway was performed using Jurkat NFAT luciferized (JNL) cells and THP-1 cells (ATCC, TIB202). THP-1 cells express FcγRI, FcγRII, and FcγRIII. Cells were co-incubated for 6 hours at 37° C., 5% CO2 at a 5:1 effector to tumor ratio with each sample at the various concentrations depicted. An equal volume of ONE-Glo™ reagent (Promega, E6110) was added to the culture volume. Plate was shaken for 2 minutes, then incubated for an additional 8 minutes protected from light. For JNL+ THP+IFNg experiment, THP-1 cells were pre-treated with 100 u/mL IFNg for 48 hours at 37° C., 5% CO2 before co-culture. IFNg stimulation increases FcγRI expression. Luciferase activity was quantitated on the EnVision plate reader (PerkinElmer). Data was analyzed and fit to a 5 parameter-logistic curve using GraphPad Prism.

human FcγR1A = human FcγR1A (Homo sapiens, UniProt P12314); test: SPR binding of Fc modified anti-CD3 IgG1 antibodies (Example 34); settings: anti-CD3 IgG1 antibody immobilized
Method: Surface plasmon resonance (SPR) experiments were performed to analyze the interaction of human activating receptors FcγR1A, FcγR3A (V158) and human C1q with IgG1 WT and antibody-Fc variants. Binding kinetics and their relative binding affinities were explored. The binding affinity is an important characteristic of an interaction between an antibody and an antigen. The equilibrium dissociation constant (KD) defines how strong the interaction is and therefore how much antibody-antigen complex is formed at equilibrium.
The knowledge of the antibody characteristics is not only essential during selection of the best therapeutic antibody candidate, but also important to understand the in vivo behavior and potentially predict cellular immune responses. […] Binding to human C1q was evaluated. […] SPR measurements were measured on a Biacore T200 (GE-Healthcare Life Sciences) controlled by Biacore T200 control software version 2.0.1. […]
The antibodies were covalently immobilized on a CM5 sensor chip whereas Fc gamma receptors or human C1q served as analytes in solution (FIG. 38). […] Zero concentration samples (blank runs) were measured for both methods to allow double-referencing during data evaluation.
Data were evaluated using the Biacore T200 evaluation software. […] In addition, the maximum response reached during the experiment was monitored. […]

[4] = tested on: T cells co-cultured with OCI-LY-19, Karpas422 or Toledo target cells; test: TBM and BBM mediated T cell proliferation (Example 20); type: cell-based, human; settings: in the presence of OCI-LY-19 and Toledo cells; E:T 1:3, 96 hrs
Method: Briefly, OCI-LY-19, Karpas422, and Toledo target cells stably expressing firefly luciferase were plated in a 96 well plate in T Cell Media (TCM) (RPMI-1640, ThermoFisher Scientific, Cat #11875-085), 10% FBS (Seradigm, Cat #1500-500), 1% L-Glutamine (Thermo Fisher Scientific, Cat #25830-081), 1% Non Essential Amino Acids (Thermo Fisher Scientific, Cat #11140-050),1% Pen/Strep (Thermo Fisher Scientific, Cat #15070063), 1% HEPES (Thermo Fisher Scientific, Cat #15630080), Sodium Pyruvate (Thermo Fisher Scientific, Cat #11360-070), 0.1% Beta-mercaptoethanol (Thermo Fisher Scientific, Cat #21985-023)]. PBMCs previously isolated and cryopreserved from 2 Leukopak donors were thawed and Pan T cells were isolated (as described earlier). Isolated T cells were labelled with 5 μM Cell Trace Violet (CTV) (Thermo Fisher Scientific, Cat #C34557) following the manufacturer's protocol and were co-cultured with target cells at an E:T ratio of 1:3. A dilution series of CD3med TSP1, CD3hi TSP1, CD3hi BSP1, CD3hi TSP1C, and blinatumomab ranging from 2.5 nM-0.0006 nM was added to cells and the plates were incubated in a 5% CO2, 37° C. incubator for 96 hrs. […]

[5] = THP-1 cells preincubated with IFNg (100 u/mL, 48 hours)

human FcγR1A, sequence (P12314 16-374): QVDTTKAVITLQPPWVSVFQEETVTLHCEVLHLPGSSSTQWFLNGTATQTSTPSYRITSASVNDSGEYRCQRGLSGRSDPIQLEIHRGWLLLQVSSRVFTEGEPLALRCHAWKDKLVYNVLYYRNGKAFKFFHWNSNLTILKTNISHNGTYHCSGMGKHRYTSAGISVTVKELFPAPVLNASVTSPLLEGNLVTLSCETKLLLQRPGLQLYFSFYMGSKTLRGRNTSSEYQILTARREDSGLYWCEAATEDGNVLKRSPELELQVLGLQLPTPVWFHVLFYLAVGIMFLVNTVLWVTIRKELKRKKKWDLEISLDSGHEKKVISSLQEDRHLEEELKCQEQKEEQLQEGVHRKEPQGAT

Row | Maximum response at 100 nM hFcgammaRIA (RU) (human FcγR1A) | Substance | Melting temperature (Tm) of CH2 domain [1] [°C] | (%) higher molecular weight [2] [%] | NFAT activity (T-cell activation) [3, 5] | NFAT activity (T-cell activation) ([3]; without IFNg, JNL:THP-1 5:1, 6 hours) | T cell proliferation (% proliferated CD3+ T cells) [4]
1 | – | DAPA-IgG1: anti-CD3 IgG1 with D265A/P329A; previously described silencing motif [reference compound] | 65 | 3.9 | some activity remaining | comparable T-cell activation with the exception of DAPA | –
2 | 15 | LALAGA-IgG1: anti-CD3 IgG1 with L234A/L235A/G237A | 70 | 2.9 | – | – | –
3 | – | LALAPA-IgG1: anti-CD3 IgG1 with L234A/L235A/P329A | 70 | 1.8 | some activity remaining | – | –
4 | 18 | LALAPG-IgG1: anti-CD3 IgG1 with L234A/L235A/P329G | 70 | 4.2 | – | – | –
5 | – | blinatumomab: bispecific T cell engager, or BiTE, that binds to both CD19 and CD3 but lacks an Fc domain [reference compound] | – | – | – | – | most potent T cell proliferation
